One block for each molecule: values may come before it.
Assays:
[1] = system: rat islets; assay: Insulin secretion by rat islets with soluble neuroligin-2; type: cell-based; details: 20 mM glucose, read-out: half-maximal inhibition of insulin secretion
Protocol: Soluble neuroligin-2 extracellular domain was added to cultures of rat islets at the indicated concentrations. Insulin secretion was then measured (20 mM glucose). […] The soluble protein competes with endogenous, clustered neuroligin for binding to transcellular partners.

[2] = system: human islet cells; assay: GSIS of dissociated human islet cells after clustered rNL2ED-Fc; type: cell-based; details: added 4 hours prior to GSIS
Protocol: FIG. 24 depicts insulin secretion by human islet cells after incubation with cross-linked, clustered rNL2ED-Fc. Indicated volume of solution containing cross-linked rNL2ED-Fc (90 μg/ml) or vehicle alone was added to equal numbers of dissociated human islet cells 4 hours prior to determination of GSIS. Stimulated insulin secretion is shown. […] (n=6 wells, representative of 3 separate experiments).
A recombinant protein with the extracellular domain of neuroligin-2 fused to an IgG Fc domain (rNL2ED-Fc) has been made. In contrast to the peptidomimetic agents, which are modeled on the neurexin binding site, this protein should be able to interact with all extracellular neuroligin-2 binding partners. Chemically cross-linked clusters incorporating this protein are made. Clustered complexes that sufficiently mimic endogenous clustered neuroligin-2 promote β-cell maturation and function to a greater degree than the peptidomimetic-based reagents. […] In contrast, rNL2ED monomers had no effect (not shown).

IC50 [1]: 9 nM
B1: Soluble neuroligin-2 extracellular domain: soluble protein that competes with endogenous, clustered neuroligin for binding to transcellular partners (protein, UniProt Q8NFZ4 15-677, looked up)
extracellular domain: QRGGGGPGGGAPGGPGLGLGSLGEERFPVVNTAYGRVRGVRRELNNEILGPVVQFLGVPYATPPLGARRFQPPEAPASWPGVRNATTLPPACPQNLHGALPAIMLPVWFTDNLEAAATYVQNQSEDCLYLNLYVPTEDGPLTKKRDEATLNPPDTDIRDPGKKPVMLFLHGGSYMEGTGNMFDGSVLAAYGNVIVATLNYRLGVLGFLSTGDQAAKGNYGLLDQIQALRWLSENIAHFGGDPERITIFGSGAGASCVNLLILSHHSEGLFQKAIAQSGTAISSWSVNYQPLKYTRLLAAKVGCDREDSAEAVECLRRKPSRELVDQDVQPARYHIAFGPVVDGDVVPDDPEILMQQGEFLNYDMLIGVNQGEGLKFVEDSAESEDGVSASAFDFTVSNFVDNLYGYPEGKDVLRETIKFMYTDWADRDNGEMRRKTLLALFTDHQWVAPAVATAKLHADYQSPVYFYTFYHHCQAEGRPEWADAAHGDELPYVFGVPMVGATDLFPCNFSKNDVMLSAVVMTYWTNFAKTGDPNQPVPQDTKFIHTKPNRFEEVVWSKFNSKEKQYLHIGLKPRVRDNYRANKVAFWLELVPHLHNLHTELFTTTTRLPPYATRWPPRPPAGAPGTRRPPPPATLPPEPEPEPGPRAYDRFPGDSRDYSTELS
modifications: extracellular domain

B2: rNL2ED monomers: non-clustered recombinant neuroligin-2 extracellular domain (protein, UniProt Q62888 15-678, looked up)
extracellular domain: QRGGGGPGGGAPGGPGLGLGSLGEERFPVVNTAYGRVRGVRRELNNEILGPVVQFLGVPYATPPLGARRFQPPEAPASWPGVRNATTLPPACPQNLHGALPAIMLPVWFTDNLEAAATYVQNQSEDCLYLNLYVPTEDGPLTKKRDEATLNPPDTDIRDSGKKPVMLFLHGGSYMEGTGNMFDGSVLAAYGNVIVATLNYRLGVLGFLSTGDQAAKGNYGLLDQIQALRWLSENIAHFGGDPERITIFGSGAGASCVNLLILSHHSEGLFQKAIAQSGTAISSWSVNYQPLKYTRLLAAKVGCDREDSTEAVECLRRKSSRELVDQDVQPARYHIAFGPVVDGDVVPDDPEILMQQGEFLNYDMLIGVNQGEGLKFVEDSAESEDGVSASAFDFTVSNFVDNLYGYPEGKDVLRETIKFMYTDWADRDNGEMRRKTLLALFTDHQWVAPAVATAKLHADYQSPVYFYTFYHHCQAEGRPEWADAAHGDELPYVFGVPMVGATDLFPCNFSKNDVMLSAVVMTYWTNFAKTGDPNQPVPQDTKFIHTKPNRFEEVVWSKFNSKEKQYLHIGLKPRVRDNYRANKVAFWLELVPHLHNLHTELFTTTTRLPPYATRWPPRTPGPGTSGTRRPPPPATLPPESDIDLGPRAYDRFPGDSRDYSTELS
modifications: extracellular domain
notes: non-clustered recombinant neuroligin-2 extracellular domain
stimulated insulin secretion by human β-cells [2]: had no effect

— patent publication US20230079439A1, “Compositions and Methods for Enhancing Beta Cell Maturation, Health and Function” (THE REGENTS OF THE UNIVERSITY OF CALIFORNIA, priority 2016, published 2023)
